Experimental data taken from IntAct's records for PubMed 23524951.

B1: Activating molecule in BECN1-regulated autophagy protein 1 (Homo sapiens), Q9C0C7-3 (parent)
chain: MKVVPEKNAVRILWGRERGARAMGAQRLLQELVEDKTRWMKWEGKRVELPDSPRSTFLLAFSPDRTLLASTHVNHNIYITEVKTGKCVHSLIGHRRTPWCVTFHPTISGLIASGCLDGEVRIWDLHGGSESWFTDSNNAIASLAFHPTAQLLLIATANEIHFWDWSRREPFAVVKTASEMERVRLVRFDPLGHYLLTAIVNPSNQQGDDEPEIPIDGTELSHYRQRALLQSQPVRRTPLLHNFLHMLSSRSSGIQVGEQSTVQDSATPSPPPPPPQPSTERPRTSAYIRLRQRVSYPTAECCQHLGILCLCSRCSGTRVPSLLPHQDSVPPASARATTPSFSFVQTEPFHPPEQASSTQQDQGLLNRPSAFSTVQSSTAGNTLRNLSLGPTRRSLGGPLSSHPSRYHREIAPGLTGSEWTRTVLSLNSRSEAESMPPPRTSASSVSLLSVLRQQEGGSQASVYTSATEGRGFPASGLATESDGGNGSSQNNSGSIRHELQCDLRRFFLEYDRLQELDQSLSGEAPQTQQAQEMLNNNIESERPGPSHQPTPHSSENNSNLSRGHLNRCRACHNLLTFNNDTLRWERTTPNYSSGEASSSWQVPSSFESVPSSGSQLPPLERTEGQTPSSSRLELSSSASPQEERTVGVAFNQETGHWERIYTQSSRSGTVSQEALHQDMPEESSEEDSLRRLSPAAYYAQRMIQYLSRRDSIRQRSMRYQQNRLRSSTSSSSSDNQGPSVEGTDLEFEDFEDNGDRSRHRAPRNARMSAPSLGRFVPRRFLLPEYLPYAGIFHERGQPGLATHSSVNRVLAGAVIGDGQSAVASNIANTTYRLQWWDFTKFDLPEISNASVNVLVQNCKIYNDASCDISADGQLLAAFIPSSQRGFPDEGILAVYSLAPHNLGEMLYTKRFGPNAISVSLSPMGRYVMVGLASRRILLHPSTEHMVAQVFRLQQAHGGETSMRRVFNVLYPMPADQRRHVSINSARWLPEPGLGLAYGTNKGDLVICRPEALNSGVEYYWDQLNETVFTVHSNSRSSERPGTSRATWRTDRDMGLMNAIGLQPRNPATSVTSQGTQTLALQLQNAETQTEREVPEPGTAASGPGEGEGSEYGASGEDALSRIQRLMAEGGMTAVVQREQSTTMASMGGFGNNIIVSHRIHRSSQTGTEPGAAHTSSPQPSTSRGLLPEAGQLAERGLSPRTASWDQPGTPGREPTQPTLPSSSPVPIPVSLPSAEGPTLHCELTNNNHLLDGGSSRGDAAGPRGEPRNR
partner: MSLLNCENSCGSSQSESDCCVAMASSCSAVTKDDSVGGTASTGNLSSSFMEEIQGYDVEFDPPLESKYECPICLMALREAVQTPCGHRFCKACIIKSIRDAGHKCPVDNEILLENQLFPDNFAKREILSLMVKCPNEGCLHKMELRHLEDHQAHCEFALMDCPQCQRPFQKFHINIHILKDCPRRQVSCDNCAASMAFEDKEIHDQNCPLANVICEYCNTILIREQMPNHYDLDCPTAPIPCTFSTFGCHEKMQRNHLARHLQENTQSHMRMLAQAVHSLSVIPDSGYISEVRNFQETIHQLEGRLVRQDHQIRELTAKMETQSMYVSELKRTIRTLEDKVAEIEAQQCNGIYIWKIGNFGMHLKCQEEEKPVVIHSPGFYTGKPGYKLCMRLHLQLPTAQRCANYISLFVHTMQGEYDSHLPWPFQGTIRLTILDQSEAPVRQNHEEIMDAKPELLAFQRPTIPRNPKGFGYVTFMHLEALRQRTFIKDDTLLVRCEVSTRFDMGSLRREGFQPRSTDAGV

Variants of: B1
Conditions: with traf6_human TRAF6, Q9Y4K3

Variant | effect of a mutation on the interaction
E620A | disrupting interaction strength
